Biological target: T1, Stabilin CTD (C-terminal domain of stabilin-2, truncated intracellular region) (human, UniProt Q8WWQ8 2501-2551)
T1 sequence: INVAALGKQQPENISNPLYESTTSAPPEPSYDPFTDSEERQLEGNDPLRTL
Assay: ITC

B1: Thymosin β4 (natural protein)
chain: MSDKPDMAEIEKFDKSKLKKTETQEKNPLPSKETIEQEKQAGES
modifications: not fully specified
Question: Which dH does the source give for B1 here?
Answer: -7.33 kJ/mol

From PMC5424802 (Intrinsically Disordered Proteins, 2013)
